System: MS2 coat protein
Experiment: apparent KD of MS2 coat protein; designed switch direction (-1 OFF switch, 1 ON switch): 1; higher = weaker reporter binding
Method in brief: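 Normalised cluster fluorescence was curve-fitted, and each design's median over clusters is its apparent KD. Before this, SNAP-549-labelled MS2 coat protein was titrated from 0.7 or 1.5 nM, doubling to 3 µM, over RNA switches transcribed on Illumina chips by stalled E. coli RNA polymerase. Titrations had no input, 200 uM small-molecule ligand, or an oligonucleotide input, and steps lasted 0.8–1.5 h (lowest) to 10–20 min (highest).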

[1] = input ligand: microRNA oligo, concentration not stated
[2] = Eterna round: R95, input ligand: microRNA oligo, concentration not stated
[3] = Eterna round: R95, input ligand: FMN 200 uM
[4] = Eterna round: R95, input ligand: none

| Sequence | apparent KD of MS2 coat protein (input ligand: FMN 200 uM) | apparent KD of MS2 coat protein [1] | apparent KD of MS2 coat protein (input ligand: none) | apparent KD of MS2 coat protein [2] | apparent KD of MS2 coat protein [3] | apparent KD of MS2 coat protein [4] |
| --- | --- | --- | --- | --- | --- | --- |
| AUUAUUUAUGCAGGAUAUGAUUAACAUGAGGAUCACCCAUGUGGUGUUGUGAGUAAGGAGAGUGAUCAGAAGGGCAUUUUUAUU [JMF's solution 52] (Eterna round: R96, puzzle: Same State NG 2) | 0.627 µM | 0.493 µM | 0.568 µM | – | – | – |
| AUUAAACAUGAGGAUCACCCAUGUCAACAAAGUCGAGGAUAUGGGCAAAUAAAAUAAGUACCAGAAGGCGAAUAAU [salish99_ss1_r3_066] (puzzle: Same State 1) | – | – | – | 0.149 µM | – | – |
| GAGUGGCAGUUAGGAUAUGUAGUGAUAAUGAUAACAGAAGGAACAGACAUGAGGAUCACCCAUGUAGGACUAAUCCAGAGAGAG [Parity 35 - Jieux - Same State NG 1] (Eterna round: R96, puzzle: Same State NG 1) | 0.0262 µM | 0.0257 µM | 0.0342 µM | – | – | – |
| AAAGUACAUGAGGAUCACCCAUGUAAAAGACUCACAGGAUAUGCUUCUUGUGUACAAGCUGCAGAAGGGUGAAAAG [Oraes] (puzzle: Same State 1) | – | – | – | 0.0559 µM | 0.0308 µM | 0.107 µM |
| UGGAUCUAGGCUUGCCUGGGUCCAUGCUGACAUGAGGAUCACCCAUGUGCAUCCUACAAGCUUUUUGCUUGUCUGUC (puzzle: Sensor for hsa-mir-208a) | – | – | – | 0.0697 µM | 0.0607 µM | 0.051 µM |
| AGUCCAGCCUAAGCUGGACAAAAGCAUGUACAUGAGGAUCACCCAUGUUCAUGUACAAGCUUUUUGCUCGUCUUAAA [Mat - hsa-mir-208a - Mod of JL - 54] (puzzle: Sensor for hsa-mir-208a) | – | – | – | 0.0151 µM | 0.544 µM | 0.447 µM |
| GAAUAACAUGAGGAUCACCCAUGUAAUAUAAUGGGAGGAUAUCUGAAUUAAUUAUAUUAAGGAGAAGGCCUAUAUG [Mat - Same State 1 - Mod of Eli - D54] (puzzle: Same State 1) | – | – | – | 0.204 µM | 0.0516 µM | 0.26 µM |
| AGCCUGAGUCGAGGAUAUUAUGGAUCAAUUAAUACAUGAGGAUCACCCAUGUAAUUAAUUUAACAUGAGAAGGUGACUCAGGCA [SSNG2/10-B1] (Eterna round: R96, puzzle: Same State NG 2) | – | 0.00866 µM | – | – | – | – |
| GGGUGUGGAAGGAAAGAUAGGAAAAGGAAACAUGAGGAUCACCCAUGUGAAGGAAGAAAGGGAGCUCGUCUUAUAAG [JR_SHM208A_Sub001] (puzzle: Sensor for hsa-mir-208a) | – | – | – | 0.0227 µM | 0.0274 µM | 0.0235 µM |
| GACCGCGAGGGAGGAUAUGGAGCCUUAUUGGCUCCAGAAGGUCCAUAAGGGACAUGAGGAUCACCCAUGUGGGUUGAAGCGGUC [Fiskers NG1ss - 36] (Eterna round: R96, puzzle: Same State NG 1) | – | 0.108 µM | – | – | – | – |
| AUGGUGCAGGUACAGGAUAUGUUGCUCGUAACAUGAGGAUCACCCAUGUACCUAUGAGAUUAAAUGCAGAAGGGUGCACACCACG [Quorra] (Eterna round: R96, puzzle: Same State 2) | 0.0628 µM | 0.407 µM | 1.26 µM | – | – | – |
| AUAAAACAUGAGGAUCACCCAUGUCAACAAAAUCGAGGAUAUGGACAGACUUCGGUCUGUCCAGAAGGCGAAUAAU [salish99_ss1_r3_100] (Eterna round: R96, puzzle: Same State 1) | 0.0151 µM | 0.0127 µM | 0.0174 µM | – | – | – |
| UCCGCUAUCUAGAAGGAUAUGCGUAAAUAAACAUGAGGAUCACCCAUGUACCGGCGAAAGCCGGUGCAGAAGGUUUAGCUAGUGA [Xeisgexe] (puzzle: Same State 2) | – | – | – | 0.574 µM | 0.0382 µM | 0.39 µM |
| GGAGUCGGCACUGAGGAUAUUCAUAUUUAAACAUGAGGAUCACCCAUGUAGGCCAGAAGGCCUUGGGAGAAGGCAGGUCGGCUCG [salish99_ss2_r3_084] (puzzle: Same State 2) | – | – | – | 0.154 µM | 0.0225 µM | 0.241 µM |
| AUUUUUAAUGCAGGAUAUGAUUAACAUGAGGAUCACCCAUGUGGUGUUGUGAGUAAGGAGAGUGAUCAGAAGGGCAUUUUUUCA [SS-NG2-LRO01] (Eterna round: R96, puzzle: Same State NG 2) | 0.838 µM | 0.495 µM | 0.533 µM | – | – | – |
| AAAAAACAUGAGGAUCACCCAUGUCAAAAGACAUGAGGAUAUGUACAGACUUCGGUCUGUACAGAAGGCAUGAAAA [salish99_ss1_r3_093] (puzzle: Same State 1) | – | – | – | 0.57 µM | 0.0322 µM | 0.528 µM |

| Sequence | apparent KD of MS2 coat protein (input ligand: FMN 200 uM) | apparent KD of MS2 coat protein [1] | apparent KD of MS2 coat protein (input ligand: none) | apparent KD of MS2 coat protein [2] | apparent KD of MS2 coat protein [3] | apparent KD of MS2 coat protein [4] |
| --- | --- | --- | --- | --- | --- | --- |
| UGUUGUAUUACAGGAUAUCUAGUUUUUUUAUUUAGAGAAGGGUAUUCACAUGAGGAUCACCCAUGUAUAUACGAGGAAGUUGUG [JMF's solution 33] (Eterna round: R96, puzzle: Same State NG 1) | – | 0.0364 µM | – | – | – | – |
| GCUAGAAUUAAUGCUAACAUGAGGAUCACCCAUGUAUGUUGGCAGGAUAUCGUUUGCUUUGCAAACGAGAAGGGCCAUACUAGC [JL SSNG3 1.09] (Eterna round: R96, puzzle: Same State NG 3) | 0.02 µM | 0.014 µM | 0.0263 µM | – | – | – |
| GUUACAUGAGGAUCACCCAUGUAUGUGUGGGAGUAAGUGUCUUAGGAUAUCUAUGAUUUAAUUUUAGAGAAGGAAGAUUGUUGU [JMF's solution 86] (Eterna round: R96, puzzle: Same State NG 3) | 0.112 µM | 0.0709 µM | 0.0908 µM | – | – | – |
| UAUUAAGCUGUAGGAUAUCUAGGAUAUGGACGAGGAUCACCCGAGCAGCAUCAGCGCACCAGAGGAGAGAAGGACGCUUUGGUG [pwkr ssNG2 2F5 2FMN.23] (Eterna round: R96, puzzle: Same State NG 2) | 0.961 µM | 0.348 µM | 2.73 µM | – | – | – |
| UCUUGGUUUUUGCUCGUUUUUUGUGUUGAACAUGAGGAUCACCCAUGUAUUGUACGGUCCGAUUUAGUAGUGGUCCG [JMF 18] (puzzle: Sensor for hsa-mir-208a) | – | – | – | 0.0145 µM | 0.026 µM | 0.0269 µM |
| AGAGCCGGCACCGAGGAUAUUCAUAUUAAAACAUGAGGAUCACCCAUGUAGGCCAGAAGGCCUUGGGAGAAGGCGGAUCGGCUCG [Xeonanis - 7] (Eterna round: R96, puzzle: Same State 2) | 0.0325 µM | 0.335 µM | 0.559 µM | – | – | – |
| GUGGUCUGACAUGAGGAUCACCCAUGUGGAAUAAAUACGGGUCAGGAUAUCUUGAGGAUCACCCAAGAGAAGGGACGGAUUGUU (Eterna round: R96, puzzle: Same State NG 3) | 0.024 µM | 0.0235 µM | 0.0351 µM | – | – | – |
| AUUGCUUACGCAGGAUAUGAUGCGAAAAUUGCGUCAGAAGGGUGAAGUGACUCAUUGCAACAGGACAUGAGGAUCACCCAUGUC [SameState NG1 #90] (Eterna round: R96, puzzle: Same State NG 1) | 0.184 µM | 0.305 µM | 0.708 µM | – | – | – |
| AGUCCAGCCUGAGCUGGACAAAAGCAUGUACAUGAGGAUCACCCAUGUUAUGUACAAGCUUUUUGCUCGUCUUAAAA [Zipper 46 - 15] (puzzle: Sensor for hsa-mir-208a) | – | – | – | 0.013 µM | 0.165 µM | 0.153 µM |
| CAGCACUAUCGAGAGGAUAUGCGGUGAUGGACAUGAGGAUCACCCAUGUUAGCGGUAGCAUCACGGCAGAAGGCUCUGCUGCUGC [Soteed Omei mod 39] (puzzle: Same State 2) | – | – | – | 0.0288 µM | 0.0204 µM | 0.0374 µM |
| GUGGUGAAUUAAGGAUAUCGAGUCUAGAUGUUAAACAUGAGGAUCACCCAUGUGGGUUGCGGUGUCGAGAAGGUAAUUUACGGG [salish99_SSNG2_r04_508] (Eterna round: R96, puzzle: Same State NG 2) | – | 0.0526 µM | – | – | – | – |
| UGAAUAUUCACAGGAUAUGAGUUGUAAAGUGGAUCAGAAGGGUGGGUGUUUUGCACGGUGUGUUACAUGAGGAUCACCCAUGUU [SameState NG1 #24] (Eterna round: R96, puzzle: Same State NG 1) | 0.205 µM | 0.232 µM | 0.627 µM | – | – | – |
| UUUAUAUUCAGAGGAUAUUAAUGUUGUAUAAUAUAAGAAGGCUGUUUGUUUUGUAAAGUUAUUAUACAUGAGGAUCACCCAUGU [JR_SSNG1_Sub082] (Eterna round: R96, puzzle: Same State NG 1) | – | 0.0155 µM | – | – | – | – |
| UACCAACAAAUAAAACAAGCGUGCUCGUCACAUGAGGAUCACCCAUGUUUAAACGCUGUACCUACAUCCUCAGCGCC [Usatqulale] (puzzle: Sensor for hsa-mir-208a) | – | – | – | 0.0313 µM | 0.0389 µM | 0.052 µM |
| CGUCCGGCCUGUGCUGGCCGGUAGCUUGUACAUGAGGAUCACCCAUGUUCAUGUGCAGGCUUUUUGCUCGUCUUGUG [salish99_mir208a_014] (puzzle: Sensor for hsa-mir-208a) | – | – | – | 0.0296 µM | 0.0279 µM | 0.0315 µM |
| UUGUUUCGUCAUUAACAUGAGGAUCACCCAUGUAUUGACCCAGAGGAUAUGCAUGUUUGAUUGUAGCAGAAGGCUGAUUGUUGU [JR_SSNG3_Sub032] (Eterna round: R96, puzzle: Same State NG 3) | 0.0137 µM | 0.027 µM | 0.0263 µM | – | – | – |

Reference: the supplement of paper PMC9170038
